Experimental data: IntAct's records for PubMed 22317921

B1: Zinc transporter SLC39A7 (Homo sapiens), Q92504 (parent)
chain: MARGLGAPHWVAVGLLTWATLGLLVAGLGGHDDLHDDLQEDFHGHSHRHSHEDFHHGHSHAHGHGHTHESIWHGHTHDHDHGHSHEDLHHGHSHGYSHESLYHRGHGHDHEHSHGGYGESGAPGIKQDLDAVTLWAYALGATVLISAAPFFVLFLIPVESNSPRHRSLLQILLSFASGGLLGDAFLHLIPHALEPHSHHTLEQPGHGHSHSGQGPILSVGLWVLSGIVAFLVVEKFVRHVKGGHGHSHGHGHAHSHTRGSHGHGRQERSTKEKQSSEEEEKETRGVQKRRGGSTVPKDGPVRPQNAEEEKRGLDLRVSGYLNLAADLAHNFTDGLAIGASFRGGRGLGILTTMTVLLHEVPHEVGDFAILVQSGCSKKQAMRLQLLTAVGALAGTACALLTEGGAVGSEIAGGAGPGWVLPFTAGGFIYVATVSVLPELLREASPLQSLLEVLGLLGGVIMMVLIAHLE

Variants of: B1
Conditions: with csk21_human CSNK2A1, P68400
Chain of csk21_human CSNK2A1, P68400 (P68400 whole entry, looked up): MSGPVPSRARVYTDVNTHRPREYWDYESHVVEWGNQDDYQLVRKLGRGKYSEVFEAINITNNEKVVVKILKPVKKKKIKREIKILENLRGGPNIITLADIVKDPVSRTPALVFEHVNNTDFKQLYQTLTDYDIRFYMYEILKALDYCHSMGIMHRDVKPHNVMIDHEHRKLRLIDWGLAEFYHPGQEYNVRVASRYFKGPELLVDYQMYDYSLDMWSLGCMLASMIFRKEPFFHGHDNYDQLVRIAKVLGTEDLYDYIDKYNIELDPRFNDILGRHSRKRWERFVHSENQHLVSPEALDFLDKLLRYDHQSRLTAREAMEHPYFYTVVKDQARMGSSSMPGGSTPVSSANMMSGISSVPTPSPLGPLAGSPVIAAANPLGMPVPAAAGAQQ

Row | effect of a mutation on the interaction | Variant
1 | decreasing interaction | S275A;S276A
